Data from patent US20120021972A1 (CADILA HEALTHCARE, published 2012).
Non-standard residues stand in square brackets, D forms with d. No end group written: not given here. 2CF3‑APPA = 2-amino-5-(2-(trifluoromethyl)phenyl)pentanoic acid; Bip(2'-Et-4'-OMe) = CCc1cc(OC)ccc1-c1ccc(C[C@H](N)C(=O)O)cc1; Leu(5,5,5,5',5',5'-F6) = N[C@@H](CC(C(F)(F)F)C(F)(F)F)C(=O)O; Nva(5-(3,5-Me2Ph)) = Cc1cc(C)cc(CCC[C@H](N)C(=O)O)c1; 2F‑APPA = 2-amino-5-(2-fluorophenyl)pentanoic acid; αMePhe(2-F) = C[C@](N)(Cc1ccccc1F)C(=O)O; hhPhe = N[C@@H](CCCc1ccccc1)C(=O)O; aThr = C[C@H](O)[C@H](N)C(=O)O; CNB = not defined here; Aib = CC(C)(N)C(=O)O

These binders were tested against human glucagon receptor (human, UniProt P47871 26-477) (assay: cell-based or functional assay).
With H[Aib][CNB]GTFTSD[Bip(2'-Et-4'-OMe)][Nva(5-(3,5-Me2Ph))] (reading uncertain) [Seq. ID. No. 30: H-Aib-(CNB)-GTFTSD-Bip(OMe)-(ADMP)] the “inhibition of cAMP production, 1 nM” value was 22 pmol/ml/µg prt, the “inhibition of cAMP production, 10 nM” value was 21 pmol/ml/µg prt and the “inhibition of cAMP production, 100 nM” value was 20 pmol/ml/µg prt. For the same binder, the “inhibition of cAMP production, 1 µM” value was 18 pmol/ml/µg prt and the “inhibition of cAMP production, 10 µM” value was 18 pmol/ml/µg prt. With Ac-H[Aib][CNB]GT[αMePhe(2-F)]TSD[Bip(2'-Et-4'-OMe)][2F‑APPA] (reading uncertain) [Seq. ID. No. 207: CH3CO-H-Aib-(CNB)-GT-(α-Me-2F-Phe)-TSD-Bip(OMe)-(2F-APPA)] the “inhibition of cAMP production, 1 nM” value was 0 pmol/ml/µg prt, the “inhibition of cAMP production, 10 nM” value was 0 pmol/ml/µg prt and the “inhibition of cAMP production, 100 nM” value was 0 pmol/ml/µg prt. For the same binder, the “inhibition of cAMP production, 1 µM” value was 0 pmol/ml/µg prt and the “inhibition of cAMP production, 10 µM” value was 0 pmol/ml/µg prt. HSQGTFTSD[Bip(2'-Et-4'-OMe)][2F‑APPA] [Seq. ID. No. 45: HSQGTFTSD-Bip(OMe)-(2F-APPA)] was tested, and the “inhibition of cAMP production, 1 nM” value was 15 pmol/ml/µg prt, the “inhibition of cAMP production, 10 nM” value was 12 pmol/ml/µg prt and the “inhibition of cAMP production, 100 nM” value was 8 pmol/ml/µg prt. For the same binder, the “inhibition of cAMP production, 1 µM” value was 4 pmol/ml/µg prt and the “inhibition of cAMP production, 10 µM” value was 2 pmol/ml/µg prt. With H[Aib][CNB]GTFTSD[Bip(2'-Et-4'-OMe)][2CF3‑APPA] (reading uncertain) [Seq. ID. No. 79: H-Aib-(CNB)-GTFTSD-Bip(OMe)-(2CF3-APPA)] the “inhibition of cAMP production, 1 nM” value was 6 pmol/ml/µg prt, the “inhibition of cAMP production, 10 nM” value was 5 pmol/ml/µg prt and the “inhibition of cAMP production, 100 nM” value was 2 pmol/ml/µg prt. For the same binder, the “inhibition of cAMP production, 1 µM” value was 0 pmol/ml/µg prt and the “inhibition of cAMP production, 10 µM” value was 0 pmol/ml/µg prt. With H[Aib][Leu(5,5,5,5',5',5'-F6)]G[aThr][αMePhe(2-F)][aThr]SD[Bip(2'-Et-4'-OMe)][hhPhe] [Seq. ID. No. 228: H-Aib-(Hfl)-G-T(allo)-(α-Me-2F-Phe)-T(allo)-SD-Bip(OMe)-(APPA)] the “inhibition of cAMP production, 1 nM” value was 19 pmol/ml/µg prt, the “inhibition of cAMP production, 10 nM” value was 17 pmol/ml/µg prt and the “inhibition of cAMP production, 100 nM” value was 15 pmol/ml/µg prt. For the same binder, the “inhibition of cAMP production, 1 µM” value was 14 pmol/ml/µg prt and the “inhibition of cAMP production, 10 µM” value was 12 pmol/ml/µg prt.

These binders were tested against T1, human GLP-1 receptor (human, UniProt P43220 24-463) (assay: cell-based or functional assay).
T1 sequence (P43220 24-463): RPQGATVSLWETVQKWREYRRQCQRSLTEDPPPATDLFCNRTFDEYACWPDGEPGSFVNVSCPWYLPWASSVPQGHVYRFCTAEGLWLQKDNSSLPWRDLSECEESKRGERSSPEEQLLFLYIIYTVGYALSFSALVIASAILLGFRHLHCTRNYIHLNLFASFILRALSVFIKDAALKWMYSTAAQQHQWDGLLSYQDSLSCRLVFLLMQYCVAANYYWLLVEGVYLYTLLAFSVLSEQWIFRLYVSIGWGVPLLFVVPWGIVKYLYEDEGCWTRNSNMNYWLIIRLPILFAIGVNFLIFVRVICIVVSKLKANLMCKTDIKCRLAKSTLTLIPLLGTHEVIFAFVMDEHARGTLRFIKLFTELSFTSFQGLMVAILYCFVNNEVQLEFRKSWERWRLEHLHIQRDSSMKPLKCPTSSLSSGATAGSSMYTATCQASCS
For H[Aib][CNB]GTFTSD[Bip(2'-Et-4'-OMe)][Nva(5-(3,5-Me2Ph))] (reading uncertain) [Seq. ID. No. 30: H-Aib-(CNB)-GTFTSD-Bip(OMe)-(ADMP)], the “cAMP release, % activity, 1 nM” value was 38%, the “cAMP release, % activity, 10 nM” value was 78% and the “cAMP release, % activity, 100 nM” value was 86%. The “cAMP release, % activity, 1 µM” value was 95% and the “cAMP release, % activity, 10 µM” value was 98%. In the case of Ac-H[Aib][CNB]GT[αMePhe(2-F)]TSD[Bip(2'-Et-4'-OMe)][2F‑APPA] (reading uncertain) [Seq. ID. No. 207: CH3CO-H-Aib-(CNB)-GT-(α-Me-2F-Phe)-TSD-Bip(OMe)-(2F-APPA)], the “cAMP release, % activity, 1 nM” value is reported as 40%, the “cAMP release, % activity, 10 nM” value is reported as 81% and the “cAMP release, % activity, 100 nM” value is reported as 89%. For the same binder, the “cAMP release, % activity, 1 µM” value was 96% and the “cAMP release, % activity, 10 µM” value was 99%. With HSQGTFTSD[Bip(2'-Et-4'-OMe)][2F‑APPA] [Seq. ID. No. 45: HSQGTFTSD-Bip(OMe)-(2F-APPA)] the “cAMP release, % activity, 1 nM” value was 51%, the “cAMP release, % activity, 10 nM” value was 86% and the “cAMP release, % activity, 100 nM” value was 91%. For the same binder, the “cAMP release, % activity, 1 µM” value was 99% and the “cAMP release, % activity, 10 µM” value was 99%. In the case of H[Aib][CNB]GTFTSD[Bip(2'-Et-4'-OMe)][2CF3‑APPA] (reading uncertain) [Seq. ID. No. 79: H-Aib-(CNB)-GTFTSD-Bip(OMe)-(2CF3-APPA)], the “cAMP release, % activity, 1 nM” value is reported as 62%, the “cAMP release, % activity, 10 nM” value is reported as 94% and the “cAMP release, % activity, 100 nM” value is reported as 99%. The “cAMP release, % activity, 1 µM” value was 99% and the “cAMP release, % activity, 10 µM” value was 99%. For H[Aib][Leu(5,5,5,5',5',5'-F6)]G[aThr][αMePhe(2-F)][aThr]SD[Bip(2'-Et-4'-OMe)][hhPhe] [Seq. ID. No. 228: H-Aib-(Hfl)-G-T(allo)-(α-Me-2F-Phe)-T(allo)-SD-Bip(OMe)-(APPA)], the “cAMP release, % activity, 1 nM” value was 99%, the “cAMP release, % activity, 10 nM” value was 99% and the “cAMP release, % activity, 100 nM” value was 99%. For the same binder, the “cAMP release, % activity, 1 µM” value was 99% and the “cAMP release, % activity, 10 µM” value was 99%.

Biological target: T1, human GLP-1 receptor
Assay: cell-based or functional assay
Remark: another data set of the same source
For H[Aib]QGT[αMePhe(2-F)]TSD[Bip(2'-Et-4'-OMe)][Nva(5-(3,5-Me2Ph))] [Seq. ID. No. 38: H-Aib-QGT-(α-Me-2F-Phe)-TSD-Bip(OMe)-(ADMP)], the “EC50, cAMP, H GLP-1 R assay” value was 340 pM.
